Measurements taken from article PMC3317677 (International Journal of Molecular Sciences, 2012).

T1: DENV1 envelope protein domain III (EDIII, aa295-395) (Dengue virus type 1, Hawaii, strain)
T1 construct: also called DENV1 EDIII; EDIII from DENV1
T1 chain: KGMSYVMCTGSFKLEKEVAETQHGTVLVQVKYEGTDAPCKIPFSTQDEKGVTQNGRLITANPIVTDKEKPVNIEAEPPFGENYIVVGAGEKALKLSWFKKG


What was measured:
[1] = molecular target: DENV2 envelope (E) protein in DENV2 infected BHK-21 cells (Dengue virus type 2, GenBank EU081177.1, UniProt A9LIC9, strain); assay: immunostaining of cells or tissue; settings: one partner purified
[2] = molecular target: T2, DENV4 envelope protein domain III (EDIII, aa295-395) (Dengue virus type 4, …, UniProt Q58HT7, strain); assay: ELISA; settings: both partners purified
T2 construct: also called DENV4 EDIII; EDIII from DENV4

[3] = molecular target: T3, DENV3 envelope protein domain III (EDIII, aa295-395) (Dengue virus type 3, …, UniProt P27915, strain); assay: ELISA; settings: both partners purified
T3 construct: also called DENV3 EDIII; EDIII from DENV3

[4] = molecular target: T1, DENV1 envelope protein domain III …; assay: ELISA; settings: both partners purified

Row | Binder | binding result [1] | binding result [2] | fold stronger interaction than the C9 Fab (average) [3] | fold stronger interaction than the C9 Fab (average) [4] | binding result [3] | binding result [4]
1 | C9 IgG (chimeric mouse/human IgG) (antibody, V domains shown, Bivalent IgG) VH: EVQLQQSGAELVRPGASVKLSCKALGYRFTDYEMYWVKQTPAHGLEWIGGIHPRSGNTAYNQKFKDKATLTADKSSSTAYMELSSLTSEDSAVYYCTTSLYWGQGTLVTVSA VL: DVLMTQTPLSLPVILGDQASISCRSSQSLVHSNGNTYLHWYLQKPGQSPKLLIYSIFNRFSGVPDRFSGSGSGTDFTLKISRVEAEDLGVYFCSQGTHVPWTFGGGTKLEIK | binds | no binding | ~30 times | ~30 times | – | –
2 | F1 Fab (chimeric mouse/human Fab) (Fab, V domains shown) VH: EVKLVESGAELVRPGASVKLSCKALGYRFTDYEMYWVKQTPAHGLEWIGGIHPRSGNTAYNQKFKDKATLTADKSSSTAYMELSSLTSEDSAVYYCTTSLYWGQGTLVTVSA VL: DILMTQSPLSLPVSLGDQASISCRSSQSLVHSTGNTYLHWYLQKPGQSPKLLIYKVSNRFSGVPDRFSGSGSGTDFTLKISRVEAEDLGVYFCSQGTHVPWTFGGGTKLELK | – | – | – | – | binds | binds
3 | C9 Fab (chimeric mouse/human Fab) (Fab, V domains shown) VH: EVQLQQSGAELVRPGASVKLSCKALGYRFTDYEMYWVKQTPAHGLEWIGGIHPRSGNTAYNQKFKDKATLTADKSSSTAYMELSSLTSEDSAVYYCTTSLYWGQGTLVTVSA VL: DVLMTQTPLSLPVILGDQASISCRSSQSLVHSNGNTYLHWYLQKPGQSPKLLIYSIFNRFSGVPDRFSGSGSGTDFTLKISRVEAEDLGVYFCSQGTHVPWTFGGGTKLEIK | – | no binding | – | – | – | –
